The source of these data is patent publication US11260100B2, “Compositions targeting the interaction domain between p27Kip1 and Brk and methods of use thereof to inhibit p27 Y phosphorylation and cdk4 activity” (The Research Foundation for the State University of New York, priority 2014, dated 2022).

Experiment [1] concerns MCF-7 inducible ALT cells. Put plainly: Mouse xenograft model, MCF7-ALT tumors. The class given is in vivo, NOD/SCID mice. Conditions: day 17; start volume 200 mm3; Palbociclib 100 mg/kg daily gavage, doxycycline 0.1 mg/ml in drinking water. On the procedure:
FIG. 14: ALT slows tumor growth in animals, and ALT and PD dual treatment causes tumor regression. MCF-7 inducible ALT cells were injected into the 4th mammary gland of NOD/SCID mice. Tumors were allowed to develop to a volume of 200 mm3, before treatment. Vehicle: daily gavage with PBS. PD: Daily gavage of Palbociclib 100 mg/kg. Doxy: 0.1 mg/ml doxycycline added to the drinking water to allow continuous uptake and induction of ALT in the human cancer cells. Doxy+PD: Daily gavage of Palbociclib 100 mg/kg and 0.1 mg/ml doxycycline added to the drinking water. Vehicle treated animals rapidly progressed and by 17 days, tumor volumes were >3000 mm PD treatment slowed down tumor growth but by day 17, tumors were >2500. […] However, dual ALT and PD (doxy/PD) treatment, caused tumor regression by […] (e.g., from 200 mm3 down to 0-40 mm3), by day 5, which was durable up to day 19.
NP-ALT was added to cell media in the absence of fetal bovine serum for 6 hours. This media was removed and replaced with FBS+media, and cells were allowed to recover for 2 days, at which time, cell counts were determined. Counts were standardized to the proliferation seen in the NO FBS untreated control. • Expression in vivo. […] Tumor volume was monitored every other day using digital calipers. […] Doxy+PD: Daily gavage of Palbociclib 100 mg/kg and 0.1 mg/ml doxycycline added to the drinking water. • Quantitative RT-PCR. […]

The target of a further experiment is T1, cdk4 (Homo sapiens, UniProt P11802).
T1 construct: added to or expressed in MCF7 breast cancer cells on day 2 post plating; endogenous in cells; host or cells: MCF7 (ALT-MCF7 tetracycline-inducible line)
In words: Immunoblot of pRBser780 as measure of active cdk4 (FIG. 10). As to conditions: MCF7, drugs at IC50. The class given is cell-based. Background: Immunoblotting shows a protein as a band on a membrane.

Another experiment addresses T2, cdk2 (Homo sapiens, UniProt P24941).
T2 construct: added to or expressed in MCF7 breast cancer cells on day 2 post plating; endogenous in cells; host or cells: MCF7 (ALT-MCF7 tetracycline-inducible line)
Put plainly: Immunoblot of cdk2T160 as measure of activated cdk2 (FIG. 10). As to conditions: MCF7, drugs at IC50. The class given is cell-based. On the procedure:
FIG. 10: ALT BRK inhibits both CDK4 and CDK2. ALT, Palbociclib alone or in combination were added to or expressed in MCF7 breast cancer cells on day 2 post plating. Drugs were added at their IC50 concentration, based on previous results. ALT is expressed from an ALT-MCF7 tetracycline inducible cell line generated in the Blain lab. When tetracycline is added to the cell culture media, ALT is expressed in these cells. Vector: no tetracycline was added, so no ALT induction was detected. Drugs and media were replaced every two days. Cells were harvested every two days, lysed and used in immunoblot analysis. Actin: loading control. pRBser780 is a phospho-specific antibody that recognizes sites phosphorylated by cdk4, so is a measure of active cdk4. cdk2T160 recognizes a required phosphorylation event on residue […] and is a measure of activated cdk2.
Additional experiments were performed assessing activity of Brk in combination with Palbociclib. The data presented in FIGS. 9A and 9B reveal that Palbociclib and Brk inhibit proliferation for 2 days, and then resistance is observed (proliferation increases). Alt maintained arrest for roughly 10 days (50% inhibition of proliferation is detected). […] Alt-Brk/Palbociclib combination leads to a more durable cell cycle arrest. Mono therapy treated cells start to become resistant between day 8-10. […]

T1 sequence (P11802 2-303 limits assumed): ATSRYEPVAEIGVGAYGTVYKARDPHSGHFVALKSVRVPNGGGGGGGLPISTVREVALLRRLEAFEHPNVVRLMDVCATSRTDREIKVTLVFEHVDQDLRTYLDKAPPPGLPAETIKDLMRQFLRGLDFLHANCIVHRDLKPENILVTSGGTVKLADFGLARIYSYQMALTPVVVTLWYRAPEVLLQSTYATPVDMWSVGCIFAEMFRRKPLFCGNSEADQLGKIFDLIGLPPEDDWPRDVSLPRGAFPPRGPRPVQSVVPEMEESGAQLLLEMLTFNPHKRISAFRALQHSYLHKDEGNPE
T1 sequence (P24385 whole entry partner): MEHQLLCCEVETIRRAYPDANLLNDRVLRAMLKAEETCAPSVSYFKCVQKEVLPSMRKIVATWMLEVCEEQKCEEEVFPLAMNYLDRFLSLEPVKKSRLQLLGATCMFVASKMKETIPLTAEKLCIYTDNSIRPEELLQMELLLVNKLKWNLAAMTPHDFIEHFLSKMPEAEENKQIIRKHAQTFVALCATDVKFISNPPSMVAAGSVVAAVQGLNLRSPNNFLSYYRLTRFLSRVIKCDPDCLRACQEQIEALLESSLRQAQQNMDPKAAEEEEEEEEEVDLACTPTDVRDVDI
Experimental for cdk4: ALT, Palbociclib alone or in combination were added to or expressed in MCF7 breast cancer cells on day 2 post plating. […] ALT is expressed from an ALT-MCF7 tetracycline inducible cell line generated in the Blain lab. When tetracycline is added to the cell culture media, ALT is expressed in these cells. Vector: no tetracycline was added, so no ALT induction was detected. Drugs and media were replaced every two days. Cells were harvested every two days, lysed and used in immunoblot analysis.

B1: Alt-Brk: alternative splice variant of Brk (SEQ ID NO: 17), 15 KD protein with SH3 domain, lacks kinase domain (protein, listed as Homo sapiens)
chain: MVSRDQAHLGPKYVGLWDFKSRTDEELSFRAGDVFHVARKEEQWWWATLLDEAGGAVAQGYVPHNYLAERETVESEPAGHAGCAALQDLAACRGPAAPERGGVLPQPARACELPQGPEPVPRPAAGRALPEARA
As to B1, the tumor volume in experiment [1] was ~1500 mm3. The “cdk4 activity (pRBser780)” value in the experiment with cdk4 is listed as “inhibits cdk4”. In addition, the “cdk2 activity (cdk2T160)” value in the experiment with cdk2 is given as “inhibits cdk2”.
